Assay: soluble fraction after stress (log2 fold change); higher = more stays soluble; pooled small domains, quantitative proteomics
Settings: stress: 75 degC
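Note: 20 min heating vs room temperature control held 20 min.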

**Q.** With “HMHPNPLTEQEIAVLKGIAQGLSNQEIADQLYLSNGTVRNYVTNILSKLDAGNRTEAANIAKESGW” as the sequence, how does the “soluble fraction (log2)” value read?
**A.** 0.00139

**Q.** Which “soluble fraction (log2)” value does the source give for “HMATVHVDGIQYDFSSPEQAKEFAYKWAKKHNLTWEVHGETIHIK” here?
**A.** -0.225

**Q.** With “HMHDEKHHQLANEIARKWAALRGNRDFAAADELKNLAAEAGVELQATKQAVGQGALAKLKENFDPVKLEAL” as the sequence, how does the “soluble fraction (log2)” value read?
**A.** 0.192

**Q.** Which “soluble fraction (log2)” value does the source give for “HMLILDTDGRYVIKRGDSLSEILEKIANGSNINLNLLKRAFVTANPKAFKRANPNWMYANAR” here?
**A.** -0.249

**Q.** For “HMSESLLTAAGFKTIAATTPEQKRHLEWLHPDQVTAVQLTGQHYYVYPDVAKSQLFVGTPKEYQAYLALRT”, which “soluble fraction (log2)” value is on record?
**A.** -0.16

**Q.** For “HMGSRAEAKEFLQTMLADGRQLATDMEEARQAHDIADRTLRRARKELNVQVYRDGNAWYWELPTPIK”, which “soluble fraction (log2)” value is on record?
**A.** -0.585

**Q.** Which “soluble fraction (log2)” value does the source give for “HMAQTEIIRVTKDIKKGDAITADKFEKVKVGAYNLPGNVVKNADELKGKFAAADLVRGDYILTSKLTDNP” here?
**A.** 0.183

**Q.** With “HMANHIAAIHVLKSKLQMSDSDYRVLITGLTQKASTKDMSDIERQRVRDHMQGLAERMGVVK” as the sequence, how does the “soluble fraction (log2)” value read?
**A.** -0.66

**Q.** With “HMYSINKTEFGERIKSAREELKMTQTQLAQLLKTSQTTVAKYEHGEQIPRADVLATISKATGKSTDWLLFG” as the sequence, how does the “soluble fraction (log2)” value read?
**A.** -0.268

**Q.** Which “soluble fraction (log2)” value does the source give for “HMPEEGPSEDGNSFTAKFKLGSDVQGAMEQADAAAKAGLQDAGKGTGQITSRAQVGGYIYSTATA” here?
**A.** 0.142

**Q.** With “HMKNTYTVVSGDTLWGIASRKLGGGSNWTKIYDANAATIESVANRRRGGRGSDHGHWIYPGTVLTI” as the sequence, how does the “soluble fraction (log2)” value read?
**A.** -0.298

**Q.** Which “soluble fraction (log2)” value does the source give for “HMENDGQFLRAEREKYGLTLTDIYEHTHIPIKKLKAYEMWEEEMPPRTRALLELYFDQVAFEYDS” here?
**A.** -0.862

**Q.** For “HMTHEIKIKSHSLFASEGTKYQWYLNNIKINDATSQELEITSPGIYKLEMTNFDGDVIEKQIIVGLTNS”, which “soluble fraction (log2)” value is on record?
**A.** -1.91

**Q.** For “HMYSIKEFSFEVTTPGQRLDLFLSEELIGQTRSSIQNLILKKYVTVNGQVSKASYKVKTGEFISVKIPV”, which “soluble fraction (log2)” value is on record?
**A.** -3.1

**Q.** Which “soluble fraction (log2)” value does the source give for “HMKPGNFILDLLRTYGQKGTSAQNLMSSSRMFNFSENLIRVTLSRLAARGLIENFERGHYRLAE” here?
**A.** -0.488

**Q.** With “HMSLETRRYQLPRTDAQTASGLLRSLSGLPGVREVNLSGEGVAYLKVDSKGFDEQNVIKLLAGE” as the sequence, how does the “soluble fraction (log2)” value read?
**A.** 0.47

**Q.** With “HMKISDLPAAQVYREIVHAWPKAAAYADLAPINNGGMQRWRDVVHEWVLRGYNPANLRGMLEWYKAGIPTR” as the sequence, how does the “soluble fraction (log2)” value read?
**A.** -0.731

**Q.** Which “soluble fraction (log2)” value does the source give for “HMAATISPEIQAEAEKAAALGVESIKNFMASLKEKNPEQHALFSDSEKRRLYAIARKADLNTTQQG” here?
**A.** 0.595

**Q.** For “HMEFQSIGGKIRIGREREHLTQAELAQKLSVTRQAVSNWERDKTLPDIYMIREIAEIFGLTLDEFMEGAKK”, which “soluble fraction (log2)” value is on record?
**A.** -1.02

**Q.** For “HMQGVTVPDLTRVSLEEAVATISSLGLRYEISDRRSNAAFPANYVLDQAPGANTIVKPNRKVYLTVNAA”, which “soluble fraction (log2)” value is on record?
**A.** -0.162

**Q.** With “HMVVVPPPATPKPGDVTGDNKINGYDLSILLSNWKRPGATLAQGDLNKDGVVNGLDLSIMLLNWG” as the sequence, how does the “soluble fraction (log2)” value read?
**A.** 0.274

**Q.** Which “soluble fraction (log2)” value does the source give for “HMNENFPYRLKEMVVVQSRTWPGINKPGGVGQVMKINPEAGTVNVKYVLGGSEKNIELKYVTSNDLNSK” here?
**A.** -0.489

**Q.** For “HMNQYIFVLNEKGARITSFVDNTIPKEELIALAKQDYPNAADYIYSADGDSMLDEFMRGKLYVNGQFVAA”, which “soluble fraction (log2)” value is on record?
**A.** -0.843

**Q.** Which “soluble fraction (log2)” value does the source give for “HMRISLKAQVYEYLKQAIINGDLKVGEIYSEQYFADKLSISRTPVREAILQLQHENMVEVKANRGIIVK” here?
**A.** -2.73

**Q.** For “HMQASTGNVNTETLNLRKEASTSADILKLLSQGDEVEIVSESNGWYKVKYKDTEGFVSKEYITVN”, which “soluble fraction (log2)” value is on record?
**A.** 1.02

**Q.** For “HMKARLRRVFQIYYGDAYSIMKALKETFPLQTIVHEPRTNSIVVDTPDEETATKIGDVVSAL”, which “soluble fraction (log2)” value is on record?
**A.** -0.771

**Q.** For “HMAIKNKNEQLEAIIKFADLRGEFKTADIEELLSIKSSRARLLISELVKIGKLESIGSNRNRRYHIK”, which “soluble fraction (log2)” value is on record?
**A.** -0.974

**Q.** For “HMRKKIIAQTLEEIRKSKGYSQKQVAAFIKVKPTTYNTYESGRTEPPAEILVRLSYLYRTPVDTLVQRDR”, which “soluble fraction (log2)” value is on record?
**A.** -2.13

**Q.** For “HMEYKTGIINTNKVRVRNAADADATVIFAINKDIKVKILAEENGFYKIGVSVKNRGNGEDLIGFVKKELIT”, which “soluble fraction (log2)” value is on record?
**A.** -1.81

**Q.** For “HMAEVPSLIGKSLDAAKQAIIDAGFKVGSVSYDNSDSYGKGQVMWQQYEPSTKVKKGSSISIKVSKGS”, which “soluble fraction (log2)” value is on record?
**A.** -0.00107

**Q.** For “HMITMADKIDTALSEMAANNEKINVSQVAKRLGISNSAIYKFNPEKIPDIQTAQKRQKHKAEAIAVGTEN”, which “soluble fraction (log2)” value is on record?
**A.** -0.0393

— the domain aggregation screens of Martell et al. (2025)
